Results published in the RNAGym collection of RNA variant scans (doi:10.1073/pnas.2313332121).

B1: TPR t1 (parent)
chain: GACCAAUCUGCCCUCAGAGCUCGAGAACAUCUUCGGAUGCAGAGGAGGCAGGCUUCGGUGGCGCGAUAGCGCCAACGUCCUCAACCUCCAAUGCAUCCCACCACAUGAUGAUGCCUGAAGAGCCUUGGUUUUUUG

Variants of: B1
Assay: polymerase ribozyme fitness, log enrichment relative to wild type (log ratio); higher = more active; in vitro selection for triplet polymerase activity
Summary of the method: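 Only genotypes with ≥10 input reads and ≥1 read per output were kept after Illumina sequencing of input and output libraries. These libraries were PCR-built, transcribed mutants of each subunit of a heterodimeric triplet polymerase ribozyme, each put through one triplicate in vitro selection round with frozen incubation at −7 °C, gel excision of extended constructs, streptavidin-bead capture and RT-PCR. Fitness is a logarithmic ratio of genotype enrichment to wild-type enrichment, from inverse-variance-weighted replicate averages, with the logarithm in base 2.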
For A26G C70U, the “polymerase ribozyme fitness (log ratio)” value was -2.78.
For A24C G65A C85A C101G G113C, the “polymerase ribozyme fitness (log ratio)” value was -6.86.
With G25A C72G the “polymerase ribozyme fitness (log ratio)” value was -5.55.
In the case of A26G G48A G63U C101G, the “polymerase ribozyme fitness (log ratio)” value is reported as -4.73.
In the case of G23C C56A U59G G113A, the “polymerase ribozyme fitness (log ratio)” value is reported as -6.74.
For C22U U55G U106A, the “polymerase ribozyme fitness (log ratio)” value was -3.56.
For C22U G117A, the “polymerase ribozyme fitness (log ratio)” value was -4.58.
In the case of A26U C53U C72U U116G, the “polymerase ribozyme fitness (log ratio)” value is reported as -6.07.
In the case of C22G G44U G48U G63U A91C A111U, the “polymerase ribozyme fitness (log ratio)” value is reported as -6.95.
With C22U C70U G117C the “polymerase ribozyme fitness (log ratio)” value was -6.77.
In the case of A26U A75G A95G, the “polymerase ribozyme fitness (log ratio)” value is reported as -2.74.
With A26G C49U G63A A84C the “polymerase ribozyme fitness (log ratio)” value was -4.24.
With A24U A83U C94U A111C G122A the “polymerase ribozyme fitness (log ratio)” value was -6.94.
In the case of A26U C62G, the “polymerase ribozyme fitness (log ratio)” value is reported as -4.89.
For A26U C82G, the “polymerase ribozyme fitness (log ratio)” value was -4.82.
For C22G G47C C104A, the “polymerase ribozyme fitness (log ratio)” value was -4.76.
For A24U G69U, the “polymerase ribozyme fitness (log ratio)” value was -3.76.
With A27G C73A the “polymerase ribozyme fitness (log ratio)” value was -2.84.
In the case of C22U G120C U130G, the “polymerase ribozyme fitness (log ratio)” value is reported as -4.69.
With G25A C40U G93C C101U C104G C115U A118G the “polymerase ribozyme fitness (log ratio)” value was -6.52.
For A26U G47A, the “polymerase ribozyme fitness (log ratio)” value was -4.24.
In the case of C22U U87A, the “polymerase ribozyme fitness (log ratio)” value is reported as -3.71.
In the case of C22U G60A U96G, the “polymerase ribozyme fitness (log ratio)” value is reported as -4.57.
With C22G G63A C114U the “polymerase ribozyme fitness (log ratio)” value was -3.48.
For A27C C53U C72U U125A, the “polymerase ribozyme fitness (log ratio)” value was -3.83.
For A24G G128U, the “polymerase ribozyme fitness (log ratio)” value was -4.32.
With A24G G128A the “polymerase ribozyme fitness (log ratio)” value was -3.49.
In the case of A27G C86U, the “polymerase ribozyme fitness (log ratio)” value is reported as -2.44.
For A27G G45U U96G G120U, the “polymerase ribozyme fitness (log ratio)” value was -3.04.
With A24G U54G G57C C124U the “polymerase ribozyme fitness (log ratio)” value was -2.01.
For A26C G69C, the “polymerase ribozyme fitness (log ratio)” value was -7.17.
For A26C G69U, the “polymerase ribozyme fitness (log ratio)” value was -3.86.
With A26U C62U G71C G93A G120U the “polymerase ribozyme fitness (log ratio)” value was -3.6.
In the case of C22G G120A, the “polymerase ribozyme fitness (log ratio)” value is reported as -2.9.
For A24G G60C C79A G122A, the “polymerase ribozyme fitness (log ratio)” value was -5.59.
For A26G, the “polymerase ribozyme fitness (log ratio)” value was -1.67.
With A26U the “polymerase ribozyme fitness (log ratio)” value was -2.98.
In the case of A26C, the “polymerase ribozyme fitness (log ratio)” value is reported as -6.07.
For A27G C40U G61C, the “polymerase ribozyme fitness (log ratio)” value was -4.06.
For C22G G71U C89A, the “polymerase ribozyme fitness (log ratio)” value was -5.9.
In the case of A24G C94A, the “polymerase ribozyme fitness (log ratio)” value is reported as -2.52.
With G25U C76A G113C the “polymerase ribozyme fitness (log ratio)” value was -5.51.
For A26G A50G C56G C82G, the “polymerase ribozyme fitness (log ratio)” value was -3.42.
With G25C C70G G107A A111U U129G the “polymerase ribozyme fitness (log ratio)” value was -7.14.
With A27G A46U G77U U78A the “polymerase ribozyme fitness (log ratio)” value was -3.31.
For A27C G71A U116C, the “polymerase ribozyme fitness (log ratio)” value was -4.74.
With C22G G42C G61U C89U the “polymerase ribozyme fitness (log ratio)” value was -5.61.
For G23A G63U, the “polymerase ribozyme fitness (log ratio)” value was -7.02.
With C22U G63C U78G U112A the “polymerase ribozyme fitness (log ratio)” value was -4.23.
In the case of A24U U30C G58A G63C A95G G120C, the “polymerase ribozyme fitness (log ratio)” value is reported as -8.06.
For A27C, the “polymerase ribozyme fitness (log ratio)” value was -2.85.
In the case of A27G, the “polymerase ribozyme fitness (log ratio)” value is reported as -1.52.
For A26U G42U G69C C72A C79U G110C, the “polymerase ribozyme fitness (log ratio)” value was -7.46.
In the case of A27G A41U C64U, the “polymerase ribozyme fitness (log ratio)” value is reported as -3.32.
With A27G C49U C76G the “polymerase ribozyme fitness (log ratio)” value was -2.99.
For C22G C115A, the “polymerase ribozyme fitness (log ratio)” value was -4.07.
For A26U A29G, the “polymerase ribozyme fitness (log ratio)” value was -4.77.
For A26U C101A C114A C123G, the “polymerase ribozyme fitness (log ratio)” value was -6.37.
For A26U U54C U133A, the “polymerase ribozyme fitness (log ratio)” value was -4.
In the case of C22G G57A A68C C80A C101U C124A, the “polymerase ribozyme fitness (log ratio)” value is reported as -6.21.
With A24G G51A U78C the “polymerase ribozyme fitness (log ratio)” value was -6.04.
For C22U C82A U87G, the “polymerase ribozyme fitness (log ratio)” value was -5.14.
In the case of A26G C94G, the “polymerase ribozyme fitness (log ratio)” value is reported as -3.05.
For A27G G57C G122A U132C, the “polymerase ribozyme fitness (log ratio)” value was -3.07.
For A27G G61A U81C A84C C104U G110U U131C, the “polymerase ribozyme fitness (log ratio)” value was -2.62.
With A26U G36U C101U the “polymerase ribozyme fitness (log ratio)” value was -5.32.
For A26U G39U G60C U78C G117C, the “polymerase ribozyme fitness (log ratio)” value was -6.27.
With A27C C82U C124A the “polymerase ribozyme fitness (log ratio)” value was -0.986.
With A27C C28U the “polymerase ribozyme fitness (log ratio)” value was -5.13.
For A27C C28G, the “polymerase ribozyme fitness (log ratio)” value was -4.
With A26U C114U the “polymerase ribozyme fitness (log ratio)” value was -5.07.
With A26U C114A the “polymerase ribozyme fitness (log ratio)” value was -3.87.
In the case of A26U C72G C97G G117U U125A, the “polymerase ribozyme fitness (log ratio)” value is reported as -6.79.
With G25U A26G C64U the “polymerase ribozyme fitness (log ratio)” value was -2.74.
For A27C C49U G61U U92C, the “polymerase ribozyme fitness (log ratio)” value was -6.24.
With A27C C62U C94U the “polymerase ribozyme fitness (log ratio)” value was -2.79.
In the case of A27G C88U U92A C104A U109C A119G U133A, the “polymerase ribozyme fitness (log ratio)” value is reported as -7.24.
For A26G G51U, the “polymerase ribozyme fitness (log ratio)” value was -5.11.
In the case of A26C G61A U96A, the “polymerase ribozyme fitness (log ratio)” value is reported as -5.9.
With A27G U55A G77C A95C the “polymerase ribozyme fitness (log ratio)” value was -4.8.
With A26G U78C the “polymerase ribozyme fitness (log ratio)” value was -2.25.
In the case of A27C A43C C114U, the “polymerase ribozyme fitness (log ratio)” value is reported as -4.33.
For C22G U112G, the “polymerase ribozyme fitness (log ratio)” value was -2.35.
With A24G A46G G57U A100C the “polymerase ribozyme fitness (log ratio)” value was -4.
